Target: T1, human ACE2 protein (human, UniProt Q9BYF1 18-740)
T1 construct: No catalogue number is printed; also called angiotensin-converting enzyme-2
Assay: adsorption isotherm on protein-coupled resin (depletion, micro-BCA)
Settings: both partners purified

T1 sequence (Q9BYF1 18-740): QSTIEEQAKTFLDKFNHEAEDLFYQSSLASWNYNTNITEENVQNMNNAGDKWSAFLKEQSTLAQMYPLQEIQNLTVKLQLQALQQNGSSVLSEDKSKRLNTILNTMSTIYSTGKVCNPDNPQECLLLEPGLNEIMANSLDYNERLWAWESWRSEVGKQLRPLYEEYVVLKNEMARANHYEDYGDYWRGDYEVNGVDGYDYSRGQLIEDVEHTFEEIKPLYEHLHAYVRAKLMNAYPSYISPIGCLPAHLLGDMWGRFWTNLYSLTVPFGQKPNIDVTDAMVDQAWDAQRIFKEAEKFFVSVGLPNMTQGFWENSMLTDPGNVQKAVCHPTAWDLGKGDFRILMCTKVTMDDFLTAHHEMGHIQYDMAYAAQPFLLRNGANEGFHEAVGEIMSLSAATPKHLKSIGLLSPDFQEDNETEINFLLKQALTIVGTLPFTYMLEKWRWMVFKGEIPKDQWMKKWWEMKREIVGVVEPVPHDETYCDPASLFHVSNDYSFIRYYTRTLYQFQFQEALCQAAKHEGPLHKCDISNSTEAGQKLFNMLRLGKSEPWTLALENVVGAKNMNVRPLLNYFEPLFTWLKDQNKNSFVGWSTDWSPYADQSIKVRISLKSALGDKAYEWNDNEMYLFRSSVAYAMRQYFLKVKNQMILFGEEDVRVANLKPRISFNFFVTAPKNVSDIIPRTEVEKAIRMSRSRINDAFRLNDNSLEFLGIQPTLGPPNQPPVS

Binder: KYPAY [functional peptide KYPAY (K5)]
- Kd: 12.5 µM
